Assay results published in the supplement of paper PMC10126150.
± gives the standard deviation of the averaged measurements.

Tested on: ATP
Assay: switch fluorescence ratio, 500 uM ATP over buffer (Cy3 cluster intensity, sum of 5 cycles each) (fold (ratio)); higher = stronger signal-on switching upon ATP binding; sequences stand for … in TCGTCGGCAGCGTCAGATGTGTATAAGAGACAGTTTTTTTTTTTTTTTTTTTTTTTTT…TC
Conditions: aptamer strand: ATP DNA aptamer (quencher-CACCTGGGGGAGTATTGCGGAGGAAGG + anchor), 100 nM annealed; ATP concentration: 500 uM
How it was run: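 Five buffer/ATP imaging cycles were run on Cy3-labelled switching-strand clusters on a modified Illumina MiSeq flow-cell, with NaOH stripping and re-annealing between cycles. In each cycle, clusters annealed to 100 nM quencher-labelled ATP aptamer were imaged in selection buffer, then after 15 min with 500 uM ATP at 22 °C. Per cluster, the fluorescence ratio is summed target-cycle over summed buffer-cycle Cy3 intensity, averaged per switch-domain sequence. Only clusters within 100-1000 RFU were kept.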
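Further: ATP exposure 15 min at 22 °C before imaging.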

| Sequence | switch fluorescence ratio |
| --- | --- |
| TTGTTCTGGA | 0.977 ± 0.056 |
| TTGTTGAGTC | 1 ± 0.032 |
| TTGTTGAGTG | 0.968 ± 0.028 |
| TTGTTGCGGA | 0.997 ± 0.011 |
| TTGTTGCGGC | 1.01 ± 0.042 |
| TTGTTGTCTA | 0.995 ± 0.015 |
| TTGTTGTTGT | 0.988 ± 0.021 |
| TTGTTTAGGC | 1.1 ± 0.027 |
| TTGTTTGAGG | 0.9815 ± 0.004 |
| TTGTTTGGGA | 1.02 ± 0.034 |
| TTGTTTGGTA | 1 ± 0.013 |
| TTGTTTGTAT | 0.9647 ± 0.0073 |
| TTGTTTGTT | 0.994 ± 0.019 |
| TTGTTTTCAC | 1.28 ± 0.4 |
| TTGTTTTCGT | 1.01 ± 0.039 |
| TTGTTTTGTC | 0.975 ± 0.065 |
| TTGTTTTTCA | 0.999 ± 0.027 |
| TTTAAAAACC | 1.01 ± 0.034 |
| TTTAAAATTG | 0.989 ± 0.042 |
| TTTAAACAA | 1 ± 0.032 |
| TTTAAACGCT | 0.997 ± 0.036 |
| TTTAAACGGG | 1 ± 0.011 |
| TTTAAAGCTG | 1.06 ± 0.064 |
| TTTAAATATT | 1.02 ± 0.031 |
| TTTAAATGGG | 1 ± 0.021 |
| TTTAACACCA | 1.029 ± 0.0075 |

| Sequence | switch fluorescence ratio |
| --- | --- |
| TTTAACAGGG | 1.03 ± 0.069 |
| TTTAACTAGT | 1 ± 0.018 |
| TTTAAGACC | 0.979 ± 0.015 |
| TTTAAGATGG | 1.02 ± 0.02 |
| TTTAAGATTA | 0.9843 ± 0.0063 |
| TTTAAGCATT | 1.19 ± 0.066 |
| TTTAAGCGCT | 0.979 ± 0.029 |
| TTTAAGCGGT | 0.996 ± 0.024 |
| TTTAAGGAAC | 1.03 ± 0.026 |
| TTTAAGGAGA | 0.993 ± 0.037 |
| TTTAAGGCAG | 1.005 ± 0.0023 |
| TTTAAGGGTG | 1.07 ± 0.037 |
| TTTAATAATG | 0.988 ± 0.036 |
| TTTAATAGCA | 1.01 ± 0.025 |
| TTTAATCATC | 1.01 ± 0.026 |
| TTTAATGCTG | 1.01 ± 0.021 |
| TTTAATGGGT | 1 ± 0.022 |
| TTTAATTGCG | 0.993 ± 0.012 |
| TTTACAGATA | 1 ± 0.018 |
| TTTACCGGAT | 1.05 ± 0.024 |
| TTTACCGGTT | 0.974 ± 0.07 |
| TTTACGACAC | 2.02 ± 0.14 |
| TTTACGCGGT | 1.03 ± 0.015 |
| TTTACGGATA | 1.349 ± 0.013 |
| TTTACGGATG | 1.044 ± 0.0036 |
| TTTACGGATT | 1.02 ± 0.048 |

| Sequence | switch fluorescence ratio |
| --- | --- |
| TTTACGGGGA | 1 ± 0.022 |
| TTTACGGTTC | 1.03 ± 0.054 |
| TTTACTAAGG | 1.03 ± 0.02 |
| TTTACTAATA | 1.02 ± 0.014 |
| TTTACTAGTT | 1.03 ± 0.037 |
| TTTACTCGCG | 1 ± 0.038 |
| TTTACTGGGC | 1.03 ± 0.022 |
| TTTACTGTTT | 1.01 ± 0.082 |
| TTTACTTCTC | 1.02 ± 0.032 |
| TTTAGAAAGG | 1 ± 0.025 |
| TTTAGAAGTG | 1.005 ± 0.0094 |
| TTTAGAATAT | 0.9885 ± 0.0018 |
| TTTAGAATCC | 1.03 ± 0.019 |
| TTTAGACA | 1.02 ± 0.053 |
| TTTAGACGAC | 1.04 ± 0.051 |
| TTTAGACTAG | 0.987 ± 0.017 |
| TTTAGAGATT | 1.01 ± 0.068 |
| TTTAGAGTAT | 0.992 ± 0.018 |
| TTTAGAGTTT | 0.997 ± 0.032 |
| TTTAGATAAC | 1.02 ± 0.044 |
| TTTAGATAGG | 0.98 ± 0.026 |
| TTTAGATTTA | 1.04 ± 0.042 |
| TTTAGATTTT | 0.998 ± 0.026 |
| TTTAGCAAAC | 3.53 ± 0.95 |
| TTTAGCATTT | 0.997 ± 0.014 |
